Laboratory results: patent US20230312753A1 (IMMUNORIZON, published 2023)

Biological target: T1, NKG2A/CD94 on CHO cells (CHOK1-NKG2A-CD94) (human, UniProt P26715 1-233; Q13241 1-179, limits assumed)
T1 construct: whole, on cells; also called CHO cells over-expressing NKG2A/CD94; CHO cell line over expressing ectopic NKG2A
Experiment: competitive FACS receptor-ligand blocking assay on CHOK1-NKG2A-CD94 cells, labelled ligand HLA-E PE (FIG. 49)

T1 sequence (P26715 whole entry, chain 1 of 2): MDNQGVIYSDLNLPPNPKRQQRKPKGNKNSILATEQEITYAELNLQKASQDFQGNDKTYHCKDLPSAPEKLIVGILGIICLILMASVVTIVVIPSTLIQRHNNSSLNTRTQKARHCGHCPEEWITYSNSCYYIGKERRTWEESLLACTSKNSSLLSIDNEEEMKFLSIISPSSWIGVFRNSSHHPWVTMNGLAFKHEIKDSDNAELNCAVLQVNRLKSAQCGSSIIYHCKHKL
T1 sequence (Q13241 whole entry, chain 2 of 2): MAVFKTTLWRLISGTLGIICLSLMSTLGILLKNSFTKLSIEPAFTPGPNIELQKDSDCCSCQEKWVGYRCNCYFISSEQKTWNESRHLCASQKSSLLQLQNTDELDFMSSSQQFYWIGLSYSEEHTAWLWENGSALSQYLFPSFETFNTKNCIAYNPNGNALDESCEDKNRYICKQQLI

B1: IM-1155 Tribody, additional CD3 epsilon mutant variant (other)
heavy: GGSGGSEVQLVESGGGLVQPGGSLRLSCAASGFTFNGGSGGWVRQAPGKGLEWVAGGGSGGGGSGGGSGGSGGGRFTISRDDSKNTLYLQMNSLRAEDTAVYYCVRGGGSGGSGGSGGGGWGQGTMVTVSSASTKGPSVFPLAPSSKSTSGGTAALGCLVKDYFPEPVTVSWNSGALTSGVHTFPAVLQSSGLYSLSSVVTVPSSSLGTQTYICNVNHKPSNTKVDKRVEPKSCPPCGGGGSDIQMTQSPSSLSASVGDRVTITCRASENIYSYLAWYQQKPGKAPKLLIYNAKTLAEGVPSRFSGSGSGTDFTLTISSLQPEDFATYYCQHHYGTPRTFGGGTKVEIKGGGGSGGGGSGGGGSGGGGSQVQLVQSGAEVKKPGASVKVSCKASGYTFTSYWMNWVRQAPGQGLEWMGRIDPYDSETHYAQKLQGRVTMTTDTSTSTAYMELRSLRSDDTAVYYCARGGYDFDVGTLYWFFDVWGQGTTVTVSS
light: GGSGGSQAVVTQEPSLTVSPGGTVTLTCGSSGGGSGGGGSGGWVQQKPGQAPRGLIGGGSGGGSGTPARFSGSLLGGKAALTLSGVQPEDEAEYYCGGGGSGGGGFGGGTKLTVLGQPKAAPSVTLFPPSSEELQANKATLVCLISDFYPGAVTVAWKADSSPVKAGVETTTPSKQSNNKYAASSYLSLTPEQWKSHRSYSCQVTHEGSTVEKTVAPTECPPCSGGGSDIQMTQSPSSLSASVGDRVTITCRASQGISNYLAWFQQKPGKAPKSLIYRANRLQSGVPSRFSGSGSGTDFTLTISSLQPEDVATYYCLQYDDFPWTFGQGTKLEIKGGGGSGGGGSGGGGSGGGGSQVQLVQSGAEVKKPGASVKVSCKASGYTFTSFWMHWVRQAPGQGLEWMGRIDPNRGGTEYNEKAKSRVTMTADKSTSTAYMELSSLRSEDTAVYYCAGGNPYYPMDYWGQGTTVTVSS
  IC50: 60 nM
